Test results published in publication PMC8405949.
Values belong to the substance of their own block, whether it stands above or below them.

Tests used:
[1] = molecular target: DNA polymerase (pol) β, human wild-type full-length (1–335 aa) (human) (UniProt P06746); test: SPR; Biacore X-100, 25 °C; polβ, ligase IIIα or APTX amine-coupled on CM5; XRCC1 (wild-type or mutants) as analyte, 30 μl/min; 20 mM HEPES pH 7.4, 150 mM NaCl, 3 mM EDTA, 0.005% Surfactant P20; 1:1 (Langmuir) model
[2] = molecular target: XRCC1 R280H R280H (human) (UniProt P18887); test: BLI; settings: BLI (Octet QKe): 20 mM HEPES pH 7.4, 200 mM NaCl, 0.5% BSA, 0.05% Tween 20, 20 °C; ternary complexes plus 10 mM MgCl2 and 0.1 mM dGTP or 1 mM ATP
XRCC1 wild-type (human) = XRCC1 wild-type (human) (UniProt P18887); test: BLI; settings: BLI (Octet QKe): 20 mM HEPES pH 7.4, 200 mM NaCl, 0.5% BSA, 0.05% Tween 20, 20 °C; ternary complexes plus 10 mM MgCl2 and 0.1 mM dGTP or 1 mM ATP
[3] = molecular target: DNA polymerase beta;XRCC1 wild-type (human;human) (UniProt P06746+P18887); test: BLI; settings: BLI (Octet QKe): 20 mM HEPES pH 7.4, 200 mM NaCl, 0.5% BSA, 0.05% Tween 20, 20 °C; ternary complexes plus 10 mM MgCl2 and 0.1 mM dGTP or 1 mM ATP
[4] = molecular target: DNA polymerase beta (human) (UniProt P06746); test: BLI; settings: BLI (Octet QKe): 20 mM HEPES pH 7.4, 200 mM NaCl, 0.5% BSA, 0.05% Tween 20, 20 °C; ternary complexes plus 10 mM MgCl2 and 0.1 mM dGTP or 1 mM ATP
[5] = molecular target: DNA polymerase beta (human) (UniProt P06746); test: BLI; settings: BLI (Octet QKe): 20 mM HEPES pH 7.4, 200 mM NaCl, 0.5% BSA, 0.05% Tween 20, 20 °C; ternary complexes plus 10 mM MgCl2 and 0.1 mM dGTP or 1 mM ATP; remark: listed apart in the source
[6] = molecular target: DNA ligase IIIα, human wild-type full-length (1–922 aa) (human); test: SPR; Biacore X-100, 25 °C; polβ, ligase IIIα or APTX amine-coupled on CM5; XRCC1 (wild-type or mutants) as analyte, 30 μl/min; 20 mM HEPES pH 7.4, 150 mM NaCl, 3 mM EDTA, 0.005% Surfactant P20; 1:1 (Langmuir) model
[7] = molecular target: Aprataxin (APTX), human wild-type full-length (human) (UniProt Q7Z2E3); test: as above
[8] = molecular target: DNA ligase IIIα, human wild-type full-length (1–922 aa) (human)
[9] = molecular target: DNA polymerase (pol) β, human wild-type full-length (1–335 aa) (human) (UniProt P06746)
[10] = test system: DNA ligase IIIalpha (human); test: BLI; settings: BLI (Octet QKe): 20 mM HEPES pH 7.4, 200 mM NaCl, 0.5% BSA, 0.05% Tween 20, 20 °C, ternary complexes plus 10 mM MgCl2 and 0.1 mM dGTP or 1 mM ATP
[11] = molecular target: DNA ligase IIIalpha;XRCC1 wild-type (human;human) (UniProt P18887); test: BLI; settings: 10 mM Mg2+, 1 mM ATP; 1:1 ligase/XRCC1; koff 2.0e-4; BLI (Octet QKe): 20 mM HEPES pH 7.4, 200 mM NaCl, 0.5% BSA, 0.05% Tween 20, 20 °C; ternary complexes plus 10 mM MgCl2 and 0.1 mM dGTP or 1 mM ATP

Aprataxin (APTX), human wild-type full-length (human), sequence (Q7Z2E3 whole entry, the tested form may be a part): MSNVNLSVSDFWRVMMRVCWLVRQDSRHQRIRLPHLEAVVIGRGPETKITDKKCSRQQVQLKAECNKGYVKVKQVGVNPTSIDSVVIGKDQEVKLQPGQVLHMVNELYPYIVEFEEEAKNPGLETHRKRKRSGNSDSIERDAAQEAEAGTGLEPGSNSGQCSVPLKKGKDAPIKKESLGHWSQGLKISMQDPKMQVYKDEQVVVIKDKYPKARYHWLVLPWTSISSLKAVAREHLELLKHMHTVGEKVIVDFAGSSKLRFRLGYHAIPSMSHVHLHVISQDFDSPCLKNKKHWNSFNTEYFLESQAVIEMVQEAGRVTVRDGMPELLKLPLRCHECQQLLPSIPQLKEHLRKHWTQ

Substance: XRCC1 V86R mutant (from UniProt P18887 1-633) (natural protein)
Kd [1]: 284 nM

Substance: one nucleotide gap DNA, template C
Kd [2]: 153 nM
Kd (XRCC1 wild-type (human)): 110 nM
Kd [3]: 30 nM
Kd [4]: 355 nM
Kd [5]: 5.4 nM

Substance: X-ray cross-complementing protein 1 (XRCC1), human wild-type full-length (1–633 aa) (from UniProt P18887 1-633) (natural protein)
Kd [1]: 10.2 nM
Kd [6]: 50.4 nM
Kd [7]: 374 nM
amount of ligation products, nick sealing of nick DNA with 3′-dG:C by ligase IIIα, with against without XRCC1 [8]: 4 fold
amount of ligation products in the coupled assay (polβ dGTP:C insertion coupled to ligation by ligase IIIα), with against without XRCC1 [9]: 2 fold

Substance: nick DNA with 3'-dG:C
Kd ([10]; 10 mM Mg2+, 1 mM ATP, no XRCC1, koff 5.0e-4): 22 nM
Kd ([10]; no ATP): 5 nM
Kd [11]: 6.5 nM
Kd [2]: 140 nM

Now from value to substance:

Kd [1]: 5.8 nM
Substance: XRCC1 cancer-associated variant R399Q (from UniProt P18887 1-633) (natural protein)

Kd [1]: 170 nM
Substance: XRCC1 R109A mutant (from UniProt P18887 1-633) (natural protein)
